# Experimental data as given in patent US20080045451A1, “Novel thymidylate synthase mutants” (priority 2000, published 2008).
# Where a chain is given by its changes, count along the chain named. Names may count otherwise. “And” between values parts separate entries of the source, which are not always exact repeats. Equal values may be shown once. “Also recorded” adds a separate entry of the source.
# B1: Mutant 302: human TS mutant, substitutions T53S, Y258F (protein, UniProt P04818 2-313, looked up, variant T53S Y258F)
# Thymidylate synthase: PVAGSELPRRPLPPAAQERDAEPRPPHGELQYLGQIQHILRCGVRKDDRTGSGTLSVFGMQARYSLRDEFPLLTTKRVFWKGVLEELLWFIKGSTNAKELSSKGVKIWDANGSRDFLDSLGFSTREEGDLGPVYGFQWRHFGAEYRDMESDYSGQGVDQLQRVIDTIKTNPDDRRIIMCAWNPRDLPLMALPPCHALCQFYVVNSELSCQLYQRSGDMGLGVPFNIASYALLTYMIAHITGLKPGDFIHTLGDAHIFLNHIEPLKIQLQREPRPFPKLRILRKVEKIDDFKAEDFQIEGYNPHPTIKMEMAV
# B2: T51S;G52S (protein)
# chain: MPVAGSELPRRPLPPAAQERDAEPRPPHGELQYLGQIQHILRCGVRKDDRSSTGTLSVFGMQARYSLRDEFPLLTTKRVFWKGVLEELLWFIKGSTNAKELSSKGVKIWDANGSRDFLDSLGFSTREEGDLGPVYGFQWRHFGAEYRDMESDYSGQGVDQLQRVIDTIKTNPDDRRIIMCAWNPRDLPLMALPPCHALCQFYVVNSELSCQLYQRSGDMGLGVPFNIASYALLTYMIAHITGLKPGDFIHTLGDAHIYLNHIEPLKIQLQREPRPFPKLRILRKVEKIDDFKAEDFQIEGYNPHPTIKMEMAV
# B3: M219V (protein)
# chain: B2 chain with S51T, S52G, M219V
# B4: D254N (protein)
# chain: B2 chain with S51T, S52G, D254N
# B5: D116A (protein)
# chain: B2 chain with S51T, S52G, D116A
# B6: T53S (protein)
# chain: B2 chain with S51T, S52G, T53S
# B7: Y258F: human TS single mutant Y258F made by site-directed mutagenesis (protein)
# chain: B2 chain with S51T, S52G, Y258F
# B8: D254A (protein)
# chain: B2 chain with S51T, S52G, D254A
# B9: T51S: human TS single mutant T51S (protein)
# chain: B2 chain with S52G
# B10: D254E (protein)
# chain: B2 chain with S51T, S52G, D254E
# B11: wild type TS: wild type human thymidylate synthase (SEQ ID NO: 7) (protein, listed as Homo sapiens)
# chain: B2 chain with S51T, S52G
# How the values were obtained:
# E. coli χ2913 cells = test: Survival of TS-deficient E. coli χ2913 expressing wild type or mutant TS on M9 plates containing 5-FdUR; type: cell-based; conditions: for resistance to 5-FdUR (survival curves), in words: FIG. 3A-3C, single mutants made by site-directed mutagenesis; for 5-FdUR concentration at which colonies formed on minimal plates: side-by-side comparison, FIG. 3A, 200 nM clones did not grow at 250 nM
# Protocol: The resistance of each of the 41 mutants to 5-FdUR is expressed as fold enhancement in survival relative to wild type determined in parallel assays. All assays were carried out in duplicate at varying concentration of 5-FdUR and most comparison were repeated in two or more separate experiments. […] Only those experiments in which the survival of the wild type was lower than 1% were included in this tabulation. The percent survival of the wild type at the indicated concentrations of 5-FdUR is as follows: (a) 0.4% in 0.4 nM; (b) <0.1% in a 150 nM; (c) 0.1% at 150 nM; (d) 0 at 300 nM; (e) 0.5% at 150 nM; (f) 0 at 200 nM; (g) 0.95 at 150 nM.
# E. coli χ2913 cells harboring plasmids with random substitutions encoding different amino acids, the TS library, were grown overnight at 37° C. in 2×YT medium containing 50 mg/ml of carbenicillin and 50 mg/ml thymidine. Cultures were diluted 1:100 in the same medium and grown at 37° C. until the OD600 reached 0.6 to 0.8. Aliquots (1 ml) of the exponentially growing cells were pelleted and resuspended in M9 salts and plated on three different media. On 1×YT containing […] of carbenicillin and supplemented with 50 mg/ml of thymidine, essentially all cells harboring the plasmid DNA should be recovered. On M9 plates containing carbenicillin, only cells expressing active TS proteins should grow because the medium lacks thymidine. Drug resistant clones were selected on M9 plates containing carbenicillin and increasing concentrations of 5FdUR essentially as previously described (Landis, D. M., Loeb, L. A., 1998, J. Biol. Chem. 273:25809-25817)
# To isolate mutants that render E. coli χ2913 resistant to 5-FdUR, the TS library was plated on M9 minimal medium containing 200 or 300 nM 5-FdUR. […] Resistant colonies were selected and plasmid DNA was isolated and re-transformed into fresh χ2913 cells to confirm that the plasmid was the source of the drug-resistant phenotype.
# To obtain a profile of amino acid replacements conferring resistance, the remaining, 3′-proximal third of the cDNA from each of the 33 mutants was sequenced. […] Resistance is recorded as percent survival relative to percent survival of host cells harboring wild type TS at 150 nM 5-FdUR of greater. Expression of TS in 10 of the resistant mutants was analyzed by Western blotting with antiserum directed against human TS. The level of expression of wild type TS was more than 2-fold greater than that of any of the mutants, estimated by visual inspection of the gel (data not shown). The mutant proteins may be more labile than the wild type or more susceptible to proteolytic degradation.
# [1] = Steady-state kinetic analysis of purified His-tagged TS proteins; type: biochemical, human; conditions: 25° C., dUMP 400 μM
# Source text: To subclone mutant TS fragments into the pH is vector (a modified pUC12 vector provided by A. Hizi), the TS cDNA was PCR-amplified by using HK-MUT5′ and TSXho3′ (5′-[…]-3′, SEQ ID NO: 4). After digestion with NdeI and XhoI, the amplified fragments were ligated into the NdeISalI digested pH is vector. The reconstructed plasmids were verified by both restriction analysis and DNA sequencing. Wild type and mutant TS proteins, as N-terminal hexahistidine fusions, were then purified by metal chelation chromatography on Ni^2+ affinity resin (His Bind resin and buffer kit, Novagen), as previously described, with minor modifications (see Landis, cited above). An overnight culture of χ2913 cells expressing the His-TS fusion protein was diluted 1:100 into 250 ml of 2×YT medium containing carbenicillin and thymidine. […] The concentration of purified TS was determined by using the Bradford assay.
# TS activity was monitored spectrophotometrically by the increase in absorbance at 340 nm that occurs concomitant with the production of H2 folate (Δε=6400 M^−1 cm^−1). […] Steady-state kinetic parameters were derived by a nonlinear least squares fit of the data to the Michaelis Menten equation with KaleidaGraph 3.0 software (Abelbeck Software, Reading Pa.). […]
# [2] = Inhibition constants (Ki) for 5-FdUMP from Dixon plot; type: biochemical, human; conditions: 25° C.
# Protocol: TS activity was monitored spectrophotometrically by the increase in absorbance at 340 nm that occurs concomitant with the production of H2 folate (Δε=6400 M^−1 cm^−1). The reaction buffer contained 50 mM TES (pH 7.4), 25 mM NaCl, 6.5 mM formaldehyde, 1 mM EDTA and 150 μM 2-mercaptoethanol. When the concentration of dUMP was varied, a high concentration of (6R)—CH2H4 folate was added (3001200 mM of a racemic mixture); when the concentration of (6R)—CH2H4-folate was varied, the concentration of dUMP was 400 μM. Purified wild type or mutant TS protein was added to initiate the reaction at 25° C. Initial velocity measurements were obtained with a Perkin Elmer Lambda Bio 20 UV/VIS spectrophotometer. Steady-state kinetic parameters were derived by a nonlinear least squares fit of the data to the Michaelis Menten equation with KaleidaGraph 3.0 software (Abelbeck Software, Reading Pa.). […] Two dUMP concentrations (30 μM and 300 μM) were used, and FdUMP concentrations were varied. To initiate reactions, CH2H4-folate was added to yield a final concentration of 300 μM of the active isomer.
# bacterial strain χ2913 = test: Testing the 5-FU-resistance of TS-mutants: colonies of transfected χ2913 on 5-FdUR selection plates; type: cell-based; conditions: 200 nM 5-FdUR, FIG. 5
# Protocol: The bacterial strain χ2913 was transfected with expressions vectors of the TS-mutants and defined amounts of bacteria in the exponential growth phase were plated on selection plates. The selection plates contained increasing concentrations of 5-fluorodeoxyuridine (0, 75, 150, 200, respectively 300 nM). 5-fluorodeoxyuridine (5-FdUR) is a very effective metabolite, which is generated from 5-fluorouracil in the cell. The selection plates were made of minimal medium, which contained carbenicilline and tetracycline. […] After 36 to 48 hours the number of growing colonies was determined. For this the number of colonies of bacteria, which were transfected with wild type thymidylate synthase was set as 100% and all other numbers of colonies were correspondingly converted to % values.
molecule,measurement,setting,value
B1,Survival Mutant/WT (fold enhancement in survival relative to wild type),E. coli χ2913 cells; (g) wild type survival 0.95 at 150 nM 5-FdUR,220 fold
same,"resistance to 5-FdUR (survival curves), in words",E. coli χ2913 cells,as resistant or more resistant to elevated concentrations of 5-FdUR than any clone tested
same,5-FdUR concentration at which colonies formed on minimal plates,E. coli χ2913 cells,250 nM
same,"Km for CH2H4-folate, fold higher than wild type TS",[1],approximately 10 fold
same,"Ki for 5-FdUMP, increase over wild type TS",[2],6 fold
B2,5-FdUR concentration at which colonies formed on minimal plates,E. coli χ2913 cells,200 nM
B3,"resistance to 5-FdUR (survival curves), in words",E. coli χ2913 cells,yield resistance
B4,"resistance to 5-FdUR (survival curves), in words",E. coli χ2913 cells,higher resistance than wild type TS
B5,"resistance to 5-FdUR (survival curves), in words",E. coli χ2913 cells,yield resistance
B6,"resistance to 5-FdUR (survival curves), in words",E. coli χ2913 cells,"less resistant than the double mutant, but more resistant than wild type TS; also recorded: less resistant than Y258F"
B7,"resistance to 5-FdUR (survival curves), in words",E. coli χ2913 cells,"less resistant than the double mutant, but more resistant than wild type TS"
same,"Ki for 5-FdUMP, increase over wild type TS",[2],3.1 fold
B8,"resistance to 5-FdUR (survival curves), in words",E. coli χ2913 cells,higher resistance than wild type TS
B9,"Ki for 5-FdUMP, increase over wild type TS",[2],11 fold
B10,"resistance to 5-FdUR (survival curves), in words",E. coli χ2913 cells,higher resistance than wild type TS
same,survival rate of bacteria transfected with TS expression vector,bacterial strain χ2913,80%
B11,percent survival of the wild type,E. coli χ2913 cells; 0.4 nM 5-FdUR,0.4%
same,percent survival of the wild type,"E. coli χ2913 cells; 150 nM 5-FdUR, separate experiments (b), (c), (e), (g)",< 0.1% and 0.1% and 0.5% and 0.95%
same,percent survival of the wild type,E. coli χ2913 cells; 200 nM 5-FdUR,0%
same,percent survival of the wild type,E. coli χ2913 cells; 300 nM 5-FdUR,0%
same,survival rate of bacteria transfected with TS expression vector,bacterial strain χ2913,no wild type TSWT survived
